From article PMC1781933, “Structure-based engineering of papillomavirus major capsid L1: controlling particle assembly” (Virology Journal, 2007)

Target: the molecule itself
Assay: SEC; Superdex-200, L1 eluted from the glutathione column after thrombin cleavage; step: L1 chains to pentamer

B1: full-length HPV16 L1 (natural protein)
chain: MSLWLPSEATVYLPPVPVSKVVSTDEYVARTNIYYHAGTSRLLAVGHPYFPIKKPNNNKILVPKVSGLQYRVFRIHLPDPNKFGFPDTSFYNPDTQRLVWACVGVEVGRGQPLGVGISGHPLLNKLDDTENASAYAANAGVDNRECISMDYKQTQLCLIGCKPPIGEHWGKGSPCTNVAVNPGDCPPLELINTVIQDGDMVDTGFGAMDFTTLQANKSEVPLDICTSICKYPDYIKMVSEPYGDSLFFYLRREQMFVRHLFNRAGAVGENVPDDLYIKGSGSTANLASSNYFPTPSGSMVTSDAQIFNKPYWLQRAQGHNNGICWGNQLFVTVVDTTRSTNMSLCAAISTSETTYKNTNFKEYLRHGEEYDLQFIFQLCKITLTADVMTYIHSMNSTILEDWNFGLQPPPGGTLEDTYRFVTSQAIACQKHTPPAPKEDPLKKYTFWEVNLKEKFSADLDQFPLGRKFLLQAGLKAKPKFTLGKRKATPTTSSTSTTAKRKKRKL
notes: major capsid protein L1 of human papillomavirus type 16, full-length clone in pGEX-2T; Purified as pentamers; forms T = 7 particles in assembly buffer; also called wild-type L1; major capsid L1 protein; source: E. coli, expressed as GST-L1 fusion from pGEX-2T, glutathione column, cleaved with thrombin, Superdex-200; not shown: GST, N-terminal, cleaved
stoichiometry N: 5
